Data as given in the supplement of paper PMC9112550, “Optimization of the antimicrobial peptide Bac7 by deep mutational scanning” (BMC Biology, 2022).

Tested on: Escherichia coli TOP10
Test: shrunken log2 fold change of peptide-encoding DNA abundance (4.5 h post-induction vs induction); higher = less antimicrobial activity (less host growth inhibition)
Settings: time post-induction: 4.5 h; library: site-saturation at positions 5, 18, 19, 20
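Further: peptides expressed intracellularly from a pBAD plasmid library in pooled LB shake-flask culture, induced with 0.3% L-arabinose, DNA abundance read by NGS, three biological replicates, DESeq2 with apeglm shrinkage.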

| Sequence | shrunken log2 fold change |
| --- | --- |
| RRIRLRPPRLPRPRPRPYIHPRP | -1.05 |
| RRIRCRPPRLPRPRPRPPPPPRP | 1.55 |
| RRIRERPPRLPRPRPRPGLRPRP | 0.0748 |
| RRIRQRPPRLPRPRPRPKIFPRP | 0.041 |
| RRIRKRPPRLPRPRPRPEKRPRP | 0.81 |
| RRIRCRPPRLPRPRPRPRRYPRP | -0.0183 |
| RRIRERPPRLPRPRPRPWLWPRP | 0.239 |
| RRIRLRPPRLPRPRPRPQPMPRP | 0.216 |
| RRIRTRPPRLPRPRPRPIYGPRP | -0.0121 |
| RRIRLRPPRLPRPRPRPDFTPRP | 0.102 |
| RRIRLRPPRLPRPRPRPPGKPRP | -0.0183 |
| RRIRRRPPRLPRPRPRPGGCPRP | 0.325 |
| RRIRERPPRLPRPRPRPVFLPRP | -0.474 |
| RRIRKRPPRLPRPRPRPMVGPRP | 0.0659 |
| RRIRSRPPRLPRPRPRPSNAPRP | -0.276 |
| RRIRSRPPRLPRPRPRPHGHPRP | -0.167 |
| RRIRDRPPRLPRPRPRPHYIPRP | -1.02 |
| RRIRHRPPRLPRPRPRPFDIPRP | -0.212 |
| RRIRKRPPRLPRPRPRPDFWPRP | 1.06 |
| RRIRCRPPRLPRPRPRPNDYPRP | -0.42 |
| RRIRGRPPRLPRPRPRPDALPRP | 0.889 |
| RRIRLRPPRLPRPRPRPMAKPRP | 0.109 |
| RRIRWRPPRLPRPRPRPETYPRP | -0.231 |
| RRIRERPPRLPRPRPRPANLPRP | -0.254 |
| RRIRARPPRLPRPRPRPIDFPRP | 0.125 |

| Sequence | shrunken log2 fold change |
| --- | --- |
| RRIRFRPPRLPRPRPRPWCKPRP | -0.0278 |
| RRIRIRPPRLPRPRPRPWEKPRP | -0.00992 |
| RRIRKRPPRLPRPRPRPYLHPRP | -0.31 |
| RRIRSRPPRLPRPRPRPDLEPRP | -0.0903 |
| RRIRNRPPRLPRPRPRPENMPRP | -0.262 |
| RRIRNRPPRLPRPRPRPGWEPRP | 1.72 |
| RRIRMRPPRLPRPRPRPKPEPRP | 0.0854 |
| RRIRRRPPRLPRPRPRPWNEPRP | -0.208 |
| RRIRIRPPRLPRPRPRPTLRPRP | 0.0906 |
| RRIRFRPPRLPRPRPRPNSQPRP | -0.496 |
| RRIRLRPPRLPRPRPRPNWIPRP | -0.583 |
| RRIRFRPPRLPRPRPRPYHIPRP | -0.081 |
| RRIRYRPPRLPRPRPRPYMVPRP | -0.386 |
| RRIRCRPPRLPRPRPRPWISPRP | -0.085 |
| RRIRSRPPRLPRPRPRPSEKPRP | 0.029 |
| RRIRLRPPRLPRPRPRPDYEPRP | -0.645 |
| RRIRIRPPRLPRPRPRPLTCPRP | -0.174 |
| RRIRNRPPRLPRPRPRPTGKPRP | -0.0851 |
| RRIRPRPPRLPRPRPRPGLCPRP | 0.399 |
| RRIRHRPPRLPRPRPRPSLDPRP | -0.22 |
| RRIRIRPPRLPRPRPRPHYLPRP | -0.0913 |
| RRIRSRPPRLPRPRPRPDHMPRP | -0.00607 |
| RRIRTRPPRLPRPRPRPLITPRP | -0.489 |
| RRIRCRPPRLPRPRPRPHDQPRP | 0.0433 |
| RRIRYRPPRLPRPRPRPCSDPRP | -0.187 |

| Sequence | shrunken log2 fold change |
| --- | --- |
| RRIRIRPPRLPRPRPRPDTHPRP | -1.12 |
| RRIRNRPPRLPRPRPRPLKVPRP | 4.47 |
| RRIRQRPPRLPRPRPRPAAHPRP | 0.179 |
| RRIRPRPPRLPRPRPRPLICPRP | -0.164 |
| RRIRGRPPRLPRPRPRPASLPRP | 0.472 |
| RRIRSRPPRLPRPRPRPRRYPRP | -0.0572 |
| RRIRYRPPRLPRPRPRPSTFPRP | -0.282 |
| RRIRIRPPRLPRPRPRPYMWPRP | -0.198 |
| RRIRKRPPRLPRPRPRPNAIPRP | 0.0998 |
| RRIRERPPRLPRPRPRPPVIPRP | -0.257 |
| RRIRGRPPRLPRPRPRPKPCPRP | 0.422 |
| RRIRVRPPRLPRPRPRPPRAPRP | 0.641 |
| RRIRMRPPRLPRPRPRPIWQPRP | -0.224 |
| RRIRFRPPRLPRPRPRPEEKPRP | -0.0254 |
| RRIRFRPPRLPRPRPRPNDLPRP | 0.00528 |
| RRIRHRPPRLPRPRPRPEPEPRP | 0.241 |
| RRIRYRPPRLPRPRPRPCLSPRP | -1.24 |
| RRIRKRPPRLPRPRPRPQYQPRP | -0.11 |
| RRIRNRPPRLPRPRPRPTTCPRP | -0.275 |
| RRIRVRPPRLPRPRPRPCAYPRP | -0.336 |
| RRIRIRPPRLPRPRPRPCLPPRP | -0.425 |
| RRIRFRPPRLPRPRPRPQILPRP | -0.713 |
| RRIRERPPRLPRPRPRPDGEPRP | -0.115 |
| RRIRLRPPRLPRPRPRPQSLPRP | -0.0995 |
| RRIRWRPPRLPRPRPRPMHVPRP | 0.0255 |

| Sequence | shrunken log2 fold change |
| --- | --- |
| RRIRIRPPRLPRPRPRPYRRPRP | -0.648 |
| RRIRWRPPRLPRPRPRPSYNPRP | -0.343 |
| RRIRYRPPRLPRPRPRPMGFPRP | -0.179 |
| RRIRIRPPRLPRPRPRPFYTPRP | -0.324 |
| RRIRARPPRLPRPRPRPHWFPRP | 0.0804 |
| RRIRVRPPRLPRPRPRPSRDPRP | -0.0563 |
| RRIRGRPPRLPRPRPRPGAWPRP | 1.56 |
| RRIRRRPPRLPRPRPRPYSDPRP | 0.186 |
| RRIRRRPPRLPRPRPRPQYIPRP | 0.0837 |
| RRIRVRPPRLPRPRPRPLEVPRP | 0.0693 |
| RRIRARPPRLPRPRPRPCDVPRP | 0.212 |
| RRIRARPPRLPRPRPRPFPSPRP | 0.131 |
| RRIRQRPPRLPRPRPRPQTCPRP | 0.0348 |
| RRIRKRPPRLPRPRPRPAPWPRP | 0.82 |
| RRIRCRPPRLPRPRPRPRTGPRP | 0.148 |
| RRIRHRPPRLPRPRPRPIHSPRP | 0.0202 |
| RRIRNRPPRLPRPRPRPRMAPRP | 0.424 |
| RRIRYRPPRLPRPRPRPQHQPRP | -0.304 |
| RRIRPRPPRLPRPRPRPAGDPRP | 0.387 |
| RRIRLRPPRLPRPRPRPEEKPRP | 0.0262 |
| RRIRERPPRLPRPRPRPITNPRP | -0.409 |
| RRIRQRPPRLPRPRPRPRSMPRP | 0.33 |
| RRIRMRPPRLPRPRPRPKRLPRP | 0.0697 |
| RRIRFRPPRLPRPRPRPIKSPRP | -0.271 |
| RRIRHRPPRLPRPRPRPSVAPRP | -0.156 |

| Sequence | shrunken log2 fold change |
| --- | --- |
| RRIRDRPPRLPRPRPRPHRPPRP | 0.0369 |
| RRIRPRPPRLPRPRPRPVMNPRP | -0.29 |
| RRIRKRPPRLPRPRPRPAYQPRP | 0.0163 |
| RRIRIRPPRLPRPRPRPWHVPRP | -0.0239 |
| RRIRYRPPRLPRPRPRPRPKPRP | 0.374 |
| RRIRCRPPRLPRPRPRPNKDPRP | -0.534 |
| RRIRARPPRLPRPRPRPDNWPRP | 0.283 |
| RRIRERPPRLPRPRPRPNLLPRP | 0.107 |
| RRIRIRPPRLPRPRPRPTPSPRP | 0.0658 |
| RRIRMRPPRLPRPRPRPDKMPRP | 0.323 |
| RRIRHRPPRLPRPRPRPESHPRP | -0.0331 |
| RRIRNRPPRLPRPRPRPEYAPRP | -0.175 |
| RRIRKRPPRLPRPRPRPHQPPRP | 0.413 |
| RRIRHRPPRLPRPRPRPECGPRP | 0.322 |
| RRIRKRPPRLPRPRPRPMLPPRP | 0.349 |
| RRIRRRPPRLPRPRPRPHECPRP | 0.0921 |
| RRIRRRPPRLPRPRPRPHRFPRP | -0.0954 |
| RRIRFRPPRLPRPRPRPKFKPRP | -0.238 |
| RRIRCRPPRLPRPRPRPYLWPRP | -0.726 |
| RRIRMRPPRLPRPRPRPDQPPRP | -0.0102 |
| RRIRVRPPRLPRPRPRPRLMPRP | -0.0256 |
| RRIRRRPPRLPRPRPRPRELPRP | 0.887 |
| RRIRSRPPRLPRPRPRPHLRPRP | 0.092 |
| RRIRYRPPRLPRPRPRPQMMPRP | -0.536 |
| RRIRVRPPRLPRPRPRPLDIPRP | -0.0121 |

| Sequence | shrunken log2 fold change |
| --- | --- |
| RRIRVRPPRLPRPRPRPNWPPRP | 0.282 |
| RRIRLRPPRLPRPRPRPAKMPRP | -0.169 |
| RRIRSRPPRLPRPRPRPPCNPRP | -0.21 |
| RRIRDRPPRLPRPRPRPRRYPRP | 0.247 |
| RRIRLRPPRLPRPRPRPPFPPRP | 0.455 |
| RRIRNRPPRLPRPRPRPHRTPRP | -0.827 |
| RRIRCRPPRLPRPRPRPEIRPRP | -0.123 |
| RRIRYRPPRLPRPRPRPWDCPRP | -0.00865 |
| RRIRKRPPRLPRPRPRPEEVPRP | 2.83 |
| RRIRWRPPRLPRPRPRPNKWPRP | -0.0175 |
| RRIRDRPPRLPRPRPRPLEFPRP | -0.158 |
| RRIRDRPPRLPRPRPRPALWPRP | 1.05 |
| RRIRDRPPRLPRPRPRPTWFPRP | 0.295 |
| RRIRSRPPRLPRPRPRPSRLPRP | -0.0299 |
| RRIRLRPPRLPRPRPRPLVFPRP | -0.186 |
| RRIRCRPPRLPRPRPRPVTLPRP | -0.34 |
| RRIRERPPRLPRPRPRPMMQPRP | -0.0983 |
| RRIRHRPPRLPRPRPRPMLIPRP | -0.824 |
| RRIRDRPPRLPRPRPRPQSRPRP | -0.123 |
| RRIRERPPRLPRPRPRPIDEPRP | 0.0844 |
| RRIRMRPPRLPRPRPRPDTLPRP | -0.122 |
| RRIRYRPPRLPRPRPRPRSVPRP | -0.0717 |
| RRIRARPPRLPRPRPRPKYGPRP | -0.0411 |
| RRIRKRPPRLPRPRPRPMAAPRP | 0.751 |
| RRIRFRPPRLPRPRPRPQKSPRP | -0.285 |
